From US20220009993A1 come the findings set out here.

The target of the assay is CD19 on CD19+ cells (Nalm6 and Namalwa) (human) (UniProt P15391). The assay is described as follows: cell-based or functional assay.
Sequence of UniProt P15391 (P15391 20-556): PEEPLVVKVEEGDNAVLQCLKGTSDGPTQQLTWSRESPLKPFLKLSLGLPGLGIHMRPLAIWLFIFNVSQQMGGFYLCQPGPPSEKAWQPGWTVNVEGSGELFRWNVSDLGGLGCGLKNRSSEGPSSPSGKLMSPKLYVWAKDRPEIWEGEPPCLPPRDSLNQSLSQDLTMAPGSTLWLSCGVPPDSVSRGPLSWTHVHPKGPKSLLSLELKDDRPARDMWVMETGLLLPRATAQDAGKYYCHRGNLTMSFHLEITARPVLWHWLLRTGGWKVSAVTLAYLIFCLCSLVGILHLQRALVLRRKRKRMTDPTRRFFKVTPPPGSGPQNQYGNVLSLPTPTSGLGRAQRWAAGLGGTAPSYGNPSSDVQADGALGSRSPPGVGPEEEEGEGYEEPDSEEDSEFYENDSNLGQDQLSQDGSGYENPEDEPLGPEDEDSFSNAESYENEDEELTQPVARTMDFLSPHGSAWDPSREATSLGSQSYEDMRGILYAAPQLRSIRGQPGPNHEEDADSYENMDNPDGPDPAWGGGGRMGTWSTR

“ARI, a second-generation anti-CD19 CAR, expressed on primary T cells from the AWARI lentiviral vector (AW promoter, SEQ ID NO 1)” gave a specific lysis of CD19+ cells (Nalm6, Namalwa) after 48 h co-culture, relative to non-transduced T cells of 70 to 80%.
